Laboratory results published in US20180355044A1 (CELLERANT THERAPEUTICS, published 2018).
Values belong to the binder of their own block, whether it stands above or below them.

Legend:
[1] = molecular target: T1, CLL-1 bearing a His Tag; assay: ELISA on His-tagged CLL-1, purified antibody
T1 construct: also called CLL1 His Tag antigen; His Tag antigen; not shown: The exact limits of the construct are not described
T1 chain: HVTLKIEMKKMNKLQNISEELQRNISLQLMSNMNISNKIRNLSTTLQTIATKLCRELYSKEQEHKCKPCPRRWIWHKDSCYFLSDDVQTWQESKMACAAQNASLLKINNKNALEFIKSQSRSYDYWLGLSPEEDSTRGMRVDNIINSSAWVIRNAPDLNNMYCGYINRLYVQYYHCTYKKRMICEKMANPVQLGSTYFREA
Description: FIG. 8 is an ELISA analysis of the binding of purified ChM31 (SEQ ID NO:14/SEQ ID NO:10), HuM31-VH2/VL2 (SEQ ID NO:16/SEQ ID NO:12), HuM31-VH3/VL2 (SEQ ID NO:17/SEQ ID NO:12), and HuM31-VH4/VL2 (SEQ ID NO:18/SEQ ID NO:12), antibodies to CLL-1 bearing a His Tag. Each antibody was tested at various concentrations, starting at 1 μg/ml and serial 2-fold dilutions. Absorbance values (Y-axis) are plotted at each antibody concentration tested (X-axis) in the figure.
Referring to FIG. 8, each antibody was tested at various concentrations, starting at 1 μg/mL and serial 2-fold dilutions. Absorbance values (Y-axis) are plotted at each antibody concentration tested (X-axis) in the figure.

[2] = molecular target: T1, CLL-1 bearing a His Tag; assay: competitive ELISA on His-tagged CLL-1; binding of mouse M31 is detected, the named antibody is the competitor
Description: FIG. 9 is an ELISA analysis of competitive binding affinity of ChM31 (SEQ ID NO:14/SEQ ID NO:10), HuM31-VH1/VL2 (SEQ ID NO:15/SEQ ID NO:12), HuM31-VH2/VL2 (SEQ ID NO:16/SEQ ID NO:12), HuM31-VH3/VL2 (SEQ ID NO:17/SEQ ID NO:12), and HuM31-VH4/VL2 (SEQ ID NO:18/SEQ ID NO:12), antibodies to CLL-1 bearing a His Tag. Binding of mouse M31 antibody in the presence of ChM31, HuM31-VH2/VL2, HuM31-VH3/VL2 or HuM31-VH4/VL2 antibody, starting at 25 μg/ml and serial 3-fold dilutions, was analyzed. Absorbance values (Y-axis) are plotted at each antibody concentration tested (X-axis) in the figure. IC₅₀ values were calculated using GraphPad Prism.
Referring to FIG. 9, binding of mouse M31 antibody in the presence of ChM31, HuM31-VH2/VL2, HuM31-VH3/VL2 or HuM31-VH4/VL2 antibody, starting at 25 μg/mL and serial 3-fold dilutions, was analyzed. Absorbance values (Y-axis) are plotted at each antibody concentration tested (X-axis) in the figure. IC50 values were calculated using GraphPad Prism.

[3] = molecular target: T2, C type Lectin Like molecule 1 (CLL-1), human, on cells (human, UniProt Q5QGZ9 1-265); assay: competition by flow cytometry on 293-CLL1 cells; Alexa488-labelled ChiM31 is displaced by the unlabelled antibody (half-maximal displacement, headed EC50 on the sheet)
T2 construct: whole, on cells; also called CLEC12A; DCAL-2
T2 sequence (looked up): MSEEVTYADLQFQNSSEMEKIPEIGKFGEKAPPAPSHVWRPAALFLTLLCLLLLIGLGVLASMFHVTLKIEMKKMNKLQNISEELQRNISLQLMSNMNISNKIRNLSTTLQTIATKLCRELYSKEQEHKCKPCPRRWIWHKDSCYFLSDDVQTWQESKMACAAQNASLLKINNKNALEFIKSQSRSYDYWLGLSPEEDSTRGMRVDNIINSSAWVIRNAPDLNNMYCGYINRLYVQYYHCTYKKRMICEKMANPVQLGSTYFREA
Description: FIG. 10 is an […] of competitive binding to 293CLL1 cells. ChiM31 was labelled with Alex488. Binding of ChiM31-Alex488 antibody in the presence of ChiM31, HuM31 and mouse M31 starting at 30 μg/ml and serial 3-fold dilutions, was analyzed. Absorbance values MFI (Y-axis) are plotted at each antibody concentration tested (X-axis) in the figure. IC₅₀ values were calculated using GraphPad Prism.
Referring to FIG. 10, ChiM31 was labeled with Alexa488. 293-CLL1 cells were pre-incubated with 1 μg of labeled ChiM31, and then completed with various amount of ChiM31 and HuM31. FACS were performed and data were analyzed and EC50 were calculated.

[4] = molecular target: T2, C type Lectin Like molecule 1 (CLL-1), …; assay: flow cytometry on KG-1a cells, MFI of C6-CLT-D202 ADC over MFI of control C0-CLT-D202 ADC; CLL-1 expression of this line not stated
[5] = molecular target: T2, C type Lectin Like molecule 1 (CLL-1), …; assay: cell-based or functional assay
[6] = molecular target: T2, C type Lectin Like molecule 1 (CLL-1), …; assay: flow cytometry on AML2 cells, MFI of C6-CLT-D202 ADC over MFI of control C0-CLT-D202 ADC; CLL-1 expression of this line not stated
[7] = molecular target: T2, C type Lectin Like molecule 1 (CLL-1), …; assay: cell-based or functional assay; remark: listed apart in the source
[8] = molecular target: T2, C type Lectin Like molecule 1 (CLL-1), …; assay: flow cytometry on U937 cells (listed as CLL-1 expressing in paragraph 160), MFI of C6-CLT-D202 ADC over MFI of control C0-CLT-D202 ADC
[9] = molecular target: T2, C type Lectin Like molecule 1 (CLL-1), …; assay: flow cytometry on HL-60 cells (express CLL-1), MFI of C6-CLT-D202 ADC over MFI of control C0-CLT-D202 ADC
[10] = molecular target: T2, C type Lectin Like molecule 1 (CLL-1), …; assay: flow cytometry on PL21 cells, MFI of C6-CLT-D202 ADC over MFI of control C0-CLT-D202 ADC; CLL-1 expression of this line not stated
[11] = molecular target: T2, C type Lectin Like molecule 1 (CLL-1), …; assay: flow cytometry on HEL92.1.7-CLL1 cells, MFI of C6-CLT-D202 ADC over MFI of control C0-CLT-D202 ADC
[12] = molecular target: T2, C type Lectin Like molecule 1 (CLL-1), …; assay: flow cytometry on HNT-34 cells, MFI of C6-CLT-D202 ADC over MFI of control C0-CLT-D202 ADC; CLL-1 expression of this line not stated
[13] = molecular target: T2, C type Lectin Like molecule 1 (CLL-1), …; assay: cell-based or functional assay; remark: listed apart in the source
[14] = molecular target: T2, C type Lectin Like molecule 1 (CLL-1), …; assay: flow cytometry on SHI-1 cells, MFI of C6-CLT-D202 ADC over MFI of control C0-CLT-D202 ADC; CLL-1 expression of this line not stated
[15] = molecular target: T2, C type Lectin Like molecule 1 (CLL-1), …; assay: flow cytometry on EOL-1 cells, MFI of C6-CLT-D202 ADC over MFI of control C0-CLT-D202 ADC; CLL-1 expression of this line not stated
[16] = molecular target: T2, C type Lectin Like molecule 1 (CLL-1), …; assay: flow cytometry on AML5 cells (express CLL-1), MFI of C6-CLT-D202 ADC over MFI of control C0-CLT-D202 ADC

EC50 (read off the curve) [1]: ~0.04 µg/mL
B3: HuM31-VH4/VL2 (antibody, V domains shown)
VH: QVQLVQSGAEVKKPGASVKVSCKASGYTFTSYVMHWVRQAPGRRLEWIGYINPYNDGTKYNEKFKGRVTITSDTSASTAYMELSSLRSEDTAVYYCARPIYFDNDYFDYWGQGTLVTVSS
VL: DIVMTQSPDSLAVSLGERATINCRASESVDSYGNSFMHWYQQKPGQPPKLLIYLASNLESGVPARFSGSGSGTDFTLTIDPVEADDAATYYCQQNNYDPWTFGGGTKLEIK
notes: humanized M31 variant

EC50 (read off the curve) [1]: ~0.04 µg/mL
B4: HuM31-VH3/VL2 (antibody, V domains shown)
VH: QVQLVQSGAEVKKPGASVKVSCKASGYTFTSYVMHWVRQAPGRRLEWIGYINPYNDGTKYNEKFKGKATITSDTSASTAYMELSSLRSEDTAVYYCARPIYFDNDYFDYWGQGTLVTVSS
VL: DIVMTQSPDSLAVSLGERATINCRASESVDSYGNSFMHWYQQKPGQPPKLLIYLASNLESGVPARFSGSGSGTDFTLTIDPVEADDAATYYCQQNNYDPWTFGGGTKLEIK
notes: humanized M31 variant

Further lines, the binder ahead of its results:

B1: ChM31 (antibody, V domains shown)
VH: EVQLQQSGPELVKPGASVKMSCKASGYTFTSYVMHWVKQKPGQGLEWIGYINPYNDGTKYNEKFKGKATLTSDTSSSTAYMELNSLTSEDSAVYFCARPIYFDNDYFDYWGQGTTLKVSS
VL: TIVLTQSPASLAVSLGQRATISCRASESVDSYGNSFMHWYQQKPGQPPKLLIYLASNLESGVPARFSGSGSRTDFTLTIDPVEADDAATYYCQQNNYDPWTFGGGTKLEIK
notes: chimeric M31; also called Chi M31; ChiM31
EC50 (read off the curve) [1]: ~0.05 µg/mL
IC50 (read off the curve) [2]: ~0.6 µg/mL
EC50 [3]: 0.71 µg/mL

B2: HuM31-VH2/VL2 (antibody, V domains shown)
VH: QVQLVQSGAEVKKPGASVKVSCKASGYTFTSYVMHWVRQAPGQRLEWIGYINPYNDGTKYNEKFKGRATLTSDTSTSTAYMELRSLRSDDTAVYYCARPIYFDNDYFDYWGQGTTVTVSS
VL: DIVMTQSPDSLAVSLGERATINCRASESVDSYGNSFMHWYQQKPGQPPKLLIYLASNLESGVPARFSGSGSGTDFTLTIDPVEADDAATYYCQQNNYDPWTFGGGTKLEIK
notes: humanized M31 variant
EC50 (read off the curve) [1]: ~0.06 µg/mL

B5: Hu M31 (antibody, V domains shown)
VH: QVQLVQSGAEVKKPGASVKVSCKASGYTFTSYVMHWVRQAPGQRLEWIGYINPYNDGTKYNEKFKGKATITSDTSASTAYMELSSLRSEDTAVYYCARPIYFDNDYFDYWGQGTLVTVSS
VL: DIVMTQSPDSLAVSLGERATINCRASESVDSYGNSFMHWYQQKPGQPPKLLIYLASNLESGVPDRFSGSGSGTDFTLTISSLQAEDVAVYYCQQNNYDPWTFGGGTKVEIK
EC50 [3]: 1.77 µg/mL

B6: C6-CLT-D202 ADC (humanized, cys-substituted at position 239 anti-CLL1 antibody C6-S239C-CYSMAB conjugated to CLT-D202) (antibody, V domains shown)
VH: EVQLVQSGAEVKKPGASVKMSCKASGYTFTSYFIHWVRQAPGQGLEWIGFINPYNDGSKYAQKFQGRATLTSDKSTSTVYMELSSLRSEDTAVYYCTRDDGYYGYAMDYWGQGTLVTVSS
VL: DIQMTQSPSSLSASVGDRVTLTCRATQELSGYLSWLQQKPGKAIKRLIYAASTLDSGVPSRFSGNRAGTDYTLTISSLQPEDFATYYCLQYAIYPYTFGQGTKLEIK
modifications: S239C in the heavy chain constant region (constant region sequence not given); CLT-D202 drug-linker conjugated to the engineered Cys 239; drug to antibody ratio 1.7
notes: Only variable regions are printed; it carries S239C; also called C6-D202; CLL1-ADC
relative MFI C6/C0 [4]: 1.3 ratio
IC50, killing of proliferating AML-5 cells [5]: 0.03 µg/mL
IC50, killing of quiescent AML-5 cells [5]: 0.02 µg/mL
cell killing of HL-60 cells, relative to the control ADC [5]: > 500 fold
decrease in IC50, TF1-CLL1 against TF1 cells [5]: ~1000 fold
relative MFI C6/C0 [6]: 13 ratio
IC50, cytotoxicity on AML2 cells [7]: 0.003 µg/mL
IC50, cytotoxicity on AML5 cells [7]: 0.013 µg/mL
IC50, cytotoxicity on EOL-1 cells [7]: 0.0137 µg/mL
IC50, cytotoxicity on HEL92.1.7-CLL1 cells [7]: 0.017 µg/mL
IC50, cytotoxicity on HL-60 cells [7]: 0.011 µg/mL
IC50, cytotoxicity on HNT-34 cells [7]: 3.5 µg/mL
IC50, cytotoxicity on KG-1a cells [7]: 82.8 µg/mL
IC50, cytotoxicity on PL21 cells [7]: 0.199 µg/mL
IC50, cytotoxicity on SHI-1 cells [7]: 5.67 µg/mL
IC50, cytotoxicity on U937 cells [7]: 11.7 µg/mL
relative MFI C6/C0 [8]: 14.7 ratio
relative MFI C6/C0 [9]: 20 ratio
relative MFI C6/C0 [10]: 14.7 ratio
relative MFI C6/C0 [11]: 26.1 ratio
relative MFI C6/C0 [12]: 5.8 ratio
IC50, cytotoxicity on TF1-CLL1 cells [13]: 0.008 µg/mL
relative MFI C6/C0 [14]: 1.4 ratio
relative MFI C6/C0 [15]: 20.5 ratio
relative MFI C6/C0 [16]: 15 ratio
